# Laboratory results taken from the supplement of paper PMC10126150.
# ± gives the standard deviation of the averaged measurements.
# System: ATP
# Experiment: switch fluorescence ratio, 500 uM ATP over buffer (Cy3 cluster intensity, sum of 5 cycles each) (fold (ratio)); higher = stronger signal-on switching upon ATP binding; sequences stand for … in TCGTCGGCAGCGTCAGATGTGTATAAGAGACAGTTTTTTTTTTTTTTTTTTTTTTTTT…TC
# Conditions: aptamer strand: ATP DNA aptamer (quencher-CACCTGGGGGAGTATTGCGGAGGAAGG + anchor), 100 nM annealed; ATP concentration: 500 uM
# Procedure, shortened: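 Cy3-labelled switching-strand clusters on a modified Illumina MiSeq flow-cell were annealed to 100 nM quencher-labelled ATP aptamer and imaged first in selection buffer, then after 15 min with 500 uM ATP at 22 °C. NaOH stripping and re-annealing separated each of five buffer/ATP cycles, and clusters outside 100-1000 RFU were excluded. The fluorescence ratio sums target-cycle Cy3 intensity over buffer-cycle Cy3 intensity per cluster and averages it per switch-domain sequence.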
# 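Further: ATP exposure 15 min at 22 °C before imaging.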
row,Sequence,switch fluorescence ratio
1,TCGGTGATTG,0.991 ± 0.016
2,AGCTAGTTAC,1.38 ± 0.014
3,TGTTTAAGAC,1.05 ± 0.092
4,GCCATATTGG,0.9715 ± 0.0077
5,AGGAGGTCGG,0.991 ± 0.01
6,GCGTTTGAAA,1.01 ± 0.013
7,GGGGGGTTCG,0.978 ± 0.021
8,GGCTATTTTC,0.991 ± 0.051
9,TTCAGGGGTG,1.1 ± 0.033
10,GGATCAATGT,0.998 ± 0.02
11,AGCGGGTTGG,1.029 ± 0.0082
12,GAACTGTTTT,0.987 ± 0.018
13,CCAGAGGAGG,1.01 ± 0.076
14,TATGCAGTA,1.3 ± 0.038
15,GTTACATGTT,0.993 ± 0.024
16,ATTGTTTGGC,1 ± 0.027
17,AAATGGATTT,1.01 ± 0.085
18,TTATTGGAGC,0.981 ± 0.015
19,GCGATCAGAG,1.04 ± 0.037
20,GAGAAGTGTG,0.993 ± 0.038
21,TTTTGTCGTT,1.03 ± 0.095
22,AATAGCAGGC,1.06 ± 0.028
23,TTTAAGGGTG,1.07 ± 0.037

row,Sequence,switch fluorescence ratio
1,CATGTAGGCA,0.99 ± 0.046
2,CAATGGCGTA,1.013 ± 0.00084
3,GCGCTCAGGT,1.09 ± 0.13
4,TTTGTTGACC,1.02 ± 0.013
5,ACATTAGGCT,1.02 ± 0.046
6,GCATAGAGCG,1.02 ± 0.065
7,TTCTGTTTTG,1.01 ± 0.029
8,ATTTGACGTT,1.003 ± 0.006
9,TTGATACATA,1.03 ± 0.017
10,TTGGTGGACA,0.976 ± 0.026
11,TTACACGTAA,1.31 ± 0.019
12,GGTGGGATTA,1.014 ± 0.009
13,CAGCACAGAT,1.015 ± 0.0019
14,TTTGAAATTA,0.9769 ± 0.003
15,AATTAAGAGG,1 ± 0.011
16,ACGGCTCAGA,1.013 ± 0.0079
17,GGATAGGGGT,1.05 ± 0.062
18,CGCTATATCG,1.09 ± 0.081
19,TCATGTTGTG,1.01 ± 0.02
20,GAGTGAGGTG,1.01 ± 0.1
21,GTTTGGTATG,0.988 ± 0.017
22,GGGGGGTCGG,1 ± 0.024
23,CGACACTATT,1.06 ± 0.034

row,Sequence,switch fluorescence ratio
1,GTGTGACTTC,0.988 ± 0.018
2,CCGGGTTTGT,1.05 ± 0.03
3,TGAGGGGGTA,0.995 ± 0.033
4,AAGATTGTGT,0.9849 ± 0.0017
5,AGTATCATTT,0.952 ± 0.02
6,TTATCCAGGC,1.02 ± 0.12
7,TCGTTTTTTT,1.07 ± 0.13
8,TATAGGGTCA,0.979 ± 0.031
9,CAGTGATACG,1.16 ± 0.036
10,ATTTCCTTTG,1.021 ± 0.006
11,ATTGGGGAAG,0.996 ± 0.049
12,TAGATAGTTT,0.981 ± 0.029
13,CTTTCTTGCT,0.975 ± 0.021
14,ATAGATAACG,1 ± 0.035
15,TTCAAGCGCT,0.967 ± 0.019
16,AAGTTGCAGC,1 ± 0.025
17,GCACGTAGCG,1.06 ± 0.046
18,CTTTGGTTG,1.01 ± 0.016
19,AGCCGTTTGA,1.023 ± 0.0016
20,GATAGGCAAA,1.017 ± 0.0051
21,GGGGGGAGTA,1.01 ± 0.056
22,CCCACTACAT,1.06 ± 0.035
23,CGGTAGGCTT,0.996 ± 0.037

row,Sequence,switch fluorescence ratio
1,AAGTTGCTGT,1.02 ± 0.063
2,CTATGCTGGT,1.01 ± 0.037
3,TTGGATTTAA,1.02 ± 0.012
4,CTTGGGAGGC,1.02 ± 0.067
5,GAGTAAAGCA,1.058 ± 0.0031
6,TGTAGTCTGG,0.969 ± 0.024
7,GGGAGGCAAT,1.46 ± 0.38
8,GCAAAAGGAG,1 ± 0.059
9,TTGGTGTTCA,0.996 ± 0.013
10,AGCGTACTCG,1.11 ± 0.047
11,GCGACCCTTT,1.118 ± 0.0042
12,TGATGGGGTT,0.9969 ± 0.0078
13,GAGGAGGCGG,1.03 ± 0.014
14,TTCGTAGTGA,1.18 ± 0.025
15,CACTGCTTTA,1.02 ± 0.037
16,TTAGAGGTAA,1.01 ± 0.019
17,TGGTGGGTGG,1.03 ± 0.058
18,TTTGAGATAC,1.39 ± 0.38
19,GAGTAAACTT,1.056 ± 0.0082
20,ATCAGAATAC,1.74 ± 0.43
21,TTTCGGGTAA,1.34 ± 0.47
22,GGTTCGTGGG,1.01 ± 0.02
23,ACGGTGGTGG,1.12 ± 0.12

row,Sequence,switch fluorescence ratio
1,CGTGTGTACA,0.98 ± 0.01
2,TTGATGAAGT,1.01 ± 0.031
3,AATCACGGAG,1.019 ± 0.0061
4,AACTAAGTGG,0.967 ± 0.017
5,TAAGTTTTGG,0.974 ± 0.017
6,TAGTTTATGT,1.012 ± 0.0056
7,GGGTCGGGTG,1.03 ± 0.042
8,TTTCGGCGCG,1.02 ± 0.038
9,TATGAGATCG,1.03 ± 0.069
10,GACATGTGGC,1.03 ± 0.037
11,GAGAAGGGGG,1.04 ± 0.049
12,GAATAAAAGG,0.973 ± 0.019
13,GTGTATGGGG,0.968 ± 0.063
14,AAAACTATTT,0.9865 ± 0.0064
15,GCTTCCGAGA,1.87 ± 0.05
16,AATCCGGGGG,0.9661 ± 0.0022
17,TGAAGGAGAA,0.929 ± 0.037
18,GGGAAAGGGA,0.978 ± 0.022
19,CAAGGTAAAG,0.992 ± 0.013
20,GTGAGGGGGG,1.01 ± 0.013
21,TCCGGGGTTT,1.02 ± 0.056
22,ACATTCTTTA,0.9628 ± 0.0042
23,TTTCCAAATG,0.9847 ± 0.0059

row,Sequence,switch fluorescence ratio
1,GGTGATTCTG,0.965 ± 0.038
2,AGCAATAGTT,2.97 ± 0.051
3,AAAACCCGA,1.01 ± 0.051
4,CGCGGGAACA,1.022 ± 0.005
5,ACGCGGTGAC,1.09 ± 0.025
6,TTTTGTATAT,1.01 ± 0.025
7,GAGATGGGGG,0.981 ± 0.038
8,GGGGGGAAGC,1.04 ± 0.064
9,GGGTTCAGGC,1.05 ± 0.059
10,GAACTATGTA,1.038 ± 0.01
11,GGTAGGATAG,0.9728 ± 0.0016
12,AGCGGAGAGT,1 ± 0.029
13,ACTGGGGCCG,1.01 ± 0.056
14,ATGTTTTAAA,0.9756 ± 0.0086
15,GGGCCTGGGT,1 ± 0.017
16,TGATTGCCCT,0.9925 ± 0.0044
17,TCAATTTTTA,1.02 ± 0.02
18,TAACTAAACT,1.12 ± 0.08
19,AATCATGTTG,0.981 ± 0.033
20,TGGTGAAACC,1.013 ± 0.0035
21,GGTTGGCATG,0.952 ± 0.03
22,CATAAACGCG,1.003 ± 0.0088
23,TTCAGTGGGG,0.991 ± 0.039

row,Sequence,switch fluorescence ratio
1,AAATAGGTTT,1 ± 0.044
2,CGGTCGGGGT,0.995 ± 0.045
3,GGGTTAGATT,0.993 ± 0.06
4,GGGGAAGCGA,1.09 ± 0.038
5,TCTAATATAC,1.62 ± 0.028
6,CGGGCCATCG,0.9939 ± 0.0063
7,AAGATGGGGC,0.998 ± 0.038
8,GGATTGCTCG,1.03 ± 0.029
9,TCCGGCTACC,1.38 ± 0.039
10,AGGATCGGAT,1.04 ± 0.003
11,GGTTTAGGAC,0.971 ± 0.016
12,ACCGTATCTT,1.06 ± 0.053
13,TTTGAATAAG,0.995 ± 0.023
14,GGGTGTTGTA,1 ± 0.055
15,ATGGGGGGTG,1 ± 0.035
16,AAAATATTTT,0.981 ± 0.027
17,GCCTTTGTTT,0.986 ± 0.02
18,TCGTATGTTA,0.97 ± 0.014
19,AATATTATGA,1.01 ± 0.012
